Target: microtubules of transfected QBI-293 cells
Experiment: cell-based or functional assay

Substance | % MT bundling from tau-expressing cells [% bundling]
tau-T40 K280Q mimetic (from UniProt P10636 1-441) | 40
tau-4KR non-mimetic mutant (T40 K163/280/281/369R) (from UniProt P10636 1-441) | 50
wild-type tau-T40 (2N4R), not acetylated (from UniProt P10636 2-441) | 55
tau-4KQ acetylation mimetic (T40 K163/280/281/369Q) (from UniProt P10636 1-441) | 7
